Experimental data published in US20200016207A1, “[…] c-MPL PROVIDES LIGAND-DEPENDENT CO-STIMULATION AND CYTOKINE SIGNALS TO TCR-ENGINEERED T CELLS” (Baylor College of Medicine, priority 2017, published 2020).

B1: thrombopoietin (protein)
chain: SPAPPACDLRVLSKLLRDSHVLHSRLSQCPEVHPLPTPVLLPAVDFSLGEWKTQMEETKAQDILGAVTLLLEGVMAARGQLGPTCLSSLLGQLSGQVRLLLGALQSLLGTQLPPQGRTTAHKDPNAIFLSFQHLLRGKVRFLMLVGGSTLCVRRAPPTTAVPSRTSLVLTLNEL
notes: recombinant human thrombopoietin, ligand of c-MPL

Experiments:
[1] = target: hematopoietic growth factor receptor c-MPL (myeloproliferative leukemia), the receptor for thrombopoietin, transgenic on human T cells (Homo sapiens (Human)) (UniProt P40238); assay: cell-based or functional assay
[2] = tested on: immune synapses between TCR+c-MPL+ T cells and BV173 leukemia cells; assay: Immunological synapse imaging (confocal microscopy); assay type: cell-based, human; settings: mean±SD
Description: T cells isolated from sequential killing co-cultures and fresh BV173 target cells were mixed at E:T 1:2, incubated for 10 minutes, fixed, permeabilized, stained with the appropriate antibodies, and analyzed on a Leica TCS SP8 laser scanning microscope. T cells were co-cultured with BV173 cells at an E:T ratio of 1:5 in CTL media with no cytokines, rhTPO (50 ng/mL) or EP (0.1 μg/mL). After one killing (no cytokine condition) or three sequential killings (rhTPO and EP conditions), cells were collected and dead cells removed (Dead Cell Removal Kit, Miltenyi) (FIG. 4A). For confocal microscopy, T cells and fresh BV173 target cells were mixed at E:T ratio of 1:2, incubated for ten minutes in a tube and ten minutes on silane-coated glass slides (Electron Microscopy Sciences) at 37° C. Cells were then permeabilized and fixed with Perm/Fix solution (BD) for 15 minutes at room temperature and stained with anti-Pericentrin (rabbit, Abcam) and anti-Perforin Alexa-488 (mouse, BD Biosciences) primary antibodies. Phalloidin 568 (Life Technologies) was used to detect F-actin. Cells were imaged as Z stacks of 0.2 μm thickness to cover their entire volume on a Leica TCS SP8 laser scanning microscope using a 100× objective. Images were acquired with the LASAF software (Leica) and analyzed with Imaris software (Imaris) and Fiji.

BV173 leukemia cells [3] = assay: Co-culture of TCR+c-MPL+ T cells with BV173 leukemia cells; assay type: cell-based, human; settings: day 5, E:T 1:3; rhTPO 50 ng/ml, IL2 25 U/ml; noCK 16.7±8.1×10^4
Description: (§1) Cells were stained ith antibodies and analyzed by flow cytometry. Cells were stained with FITC-, phycoerythrin- (PE-), peridinin chlorophyll protein-(PerCP-), or allophycocyanin-conjugated (APC-conjugated) antibodies (Abs) against CD3, CD4, CD8, CD110 (c-MPL), murine TCR constant region (mCβ, ebioscience), CD19, or CD138. Cell viability was assessed by 7-AAD staining. T cells and tumor cell populations from co-culture assays were quantified by adding CountBright Beads (Invitrogen) to the analysis. T cell memory marker expression on CD8+ T cells re-covered from co-cultures was analyzed by staining cells with FITC-, PE-, ECD-, PerCP-, APC-, APC-AF750, or V450-conjugated Abs against CD45RO, CD45RA, CD62L, CCR7, CD110, mCβ, CD19, and 7AAD. Intracellular staining for phosphoproteins pSTAT3 and pSTAT5 was performed with PE- and Pacific Blue-conjugated Abs and Phosflow reagents (BD). To assess cell proliferation, cells were labeled with Carboxyfluorescein succinimidyl ester (CFSE, ThermoFisher) and analyzed after 7 days of culture. All antibodies were purchased from BD or Beckman Coulter unless otherwise indicated, and all staining procedures were performed according to the manufacturer's recommendation. Data acquisition was performed on a BD FACSCalibur using CellQuest software or a Beckman Coulter Gallios flow cytometer using Kaluza software. […]

BV173 leukemia cells [4] = assay: Serial (sequential) co-culture with BV173 leukemia cells; assay type: cell-based, human
Description: Cells were stained ith antibodies and analyzed by flow cytometry. Cells were stained with FITC-, phycoerythrin- (PE-), peridinin chlorophyll protein-(PerCP-), or allophycocyanin-conjugated (APC-conjugated) antibodies (Abs) against CD3, CD4, CD8, CD110 (c-MPL), murine TCR constant region (mCβ, ebioscience), CD19, or CD138. Cell viability was assessed by 7-AAD staining. T cells and tumor cell populations from co-culture assays were quantified by adding CountBright Beads (Invitrogen) to the analysis. T cell memory marker expression on CD8+ T cells re-covered from co-cultures was analyzed by staining cells with FITC-, PE-, ECD-, PerCP-, APC-, APC-AF750, or V450-conjugated Abs against CD45RO, CD45RA, CD62L, CCR7, CD110, mCβ, CD19, and 7AAD. Intracellular staining for phosphoproteins pSTAT3 and pSTAT5 was performed with PE- and Pacific Blue-conjugated Abs and Phosflow reagents (BD). To assess cell proliferation, cells were labeled with Carboxyfluorescein succinimidyl ester (CFSE, ThermoFisher) and analyzed after 7 days of culture. All antibodies were purchased from BD or Beckman Coulter unless otherwise indicated, and all staining procedures were performed according to the manufacturer's recommendation. Data acquisition was performed on a BD FACSCalibur using CellQuest software or a Beckman Coulter Gallios flow cytometer using Kaluza software. Data analysis was performed with FlowJo software (Tree Star Inc.).
BV173 or U266B1 cells and T cells were co-cultured in up to eight replicate wells at various E:T ratios in CTL media with no cytokines, rhTPO (5 ng/mL or 50 ng/mL), or EP (0.1 μg/mL). […] Co-culture supernatants were harvested 24 hours after initial plating or tumor-cell add-back to replicate wells and stored at −80° C. for further analysis.

U266 myeloma cells = assay: Co-culture of TCR+c-MPL+ T cells with U266 myeloma cells; assay type: cell-based, human; settings: rhTPO 50 ng/ml, IL2 25 U/ml, n=3
Description: as §1

NT T cells = assay: Expansion of non-transduced (NT) T cells in TPO; assay type: cell-based, human; settings: cell number from 3×10^6 cells, TPO 50 ng/ml, mean±SD, n=4
Description: (§2) […] Transient retroviral supernatant was prepared by transfection of 293T cells and activated T cells were transduced as described (Arber et al., 2015). The number of retroviral integrants in TCR+c-MPL+ T cells was estimated by quantitative PCR. Whole PBMC's were isolated from fresh buffy coats by Lymphoprep (Axis-Shield) density gradient centrifugation. If required, CD8+ T cells were isolated from PBMCs using magnetic beads and columns (Miltenyi Biotec). […]
(§3) Cells were stained ith antibodies and analyzed by flow cytometry. […] Cell viability was assessed by 7-AAD staining. T cells and tumor cell populations from co-culture assays were quantified by adding CountBright Beads (Invitrogen) to the analysis. T cell memory marker expression on CD8+ T cells re-covered from co-cultures was analyzed by staining cells with FITC-, PE-, ECD-, PerCP-, APC-, APC-AF750, or V450-conjugated Abs against CD45RO, CD45RA, CD62L, CCR7, CD110, mCβ, CD19, and 7AAD. […] To assess cell proliferation, cells were labeled with Carboxyfluorescein succinimidyl ester (CFSE, ThermoFisher) and analyzed after 7 days of culture. […]

TCR+ T cells = assay: Antigen-specific expansion with survivin peptide-pulsed aAPCs, TCR+ T cells; assay type: cell-based, human; settings: IL-2 50 U/mL; rhTPO up to 500 ng/ml
Description: At the end of the first stimulation (7 days), cells were collected, counted, phenotyped and re-stimulated with fresh peptide-pulsed aAPCs under the same conditions. Fold expansion was recorded at the end of the second stimulation.

c-MPL+ cells = assay: c-MPL ligand-dependent STAT3/STAT5 phosphorylation in TCR+c-MPL+ T cells; assay type: cell-based, human; settings: TPO 50 ng/ml or EP 0.1 μg/ml, 1 or 24 hours; c-MPL- cells did not
Description: Similar results were obtained with the TPO small molecule agonist EP. A dose-titration experiment was used to determine the optimal concentration of EP to support c-MPL+ T cell expansion (FIG. 2C). EP was previously shown to inhibit leukemia cell proliferation at higher concentrations (1-10 μg/ml) by reduction of intracellular iron, a c-MPL independent effect (Roth et al., 2012). NT or c-MPL+ T cells were re-activated on OKT3/CD28-coated plates in the presence of different EP concentrations and expansion of viable T cells was determined after 7 days. […] Next, it was evaluated whether rhTPO enhanced the anti-tumor function of TCR+c-MPL+ T cells using two different HLA-A*0201+survivin+hematologic malignancies as targets (U266 multiple myeloma, BV173 leukemia) (FIGS. 2E-2F). […]
Cells were stained ith antibodies and analyzed by flow cytometry. […] Cell viability was assessed by 7-AAD staining. T cells and tumor cell populations from co-culture assays were quantified by adding CountBright Beads (Invitrogen) to the analysis. T cell memory marker expression on CD8+ T cells re-covered from co-cultures was analyzed by staining cells with FITC-, PE-, ECD-, PerCP-, APC-, APC-AF750, or V450-conjugated Abs against CD45RO, CD45RA, CD62L, CCR7, CD110, mCβ, CD19, and 7AAD. […]

TCR+c-MPL+ T cells [5] = assay: Antigen-specific expansion with survivin peptide-pulsed aAPCs, TCR+c-MPL+ T cells; assay type: cell-based, human; settings: rhTPO 5, 50, 500 ng/ml, two stimulations
Description: aAPCs (described above) were pulsed with the […] survivin peptide (Genemed Synthesis), irradiated at 100 cGy, and used to stimulate T cells at an E:T ratio of 4:1 with IL-2 (50 U/mL) or rhTPO (5 ng/mL, 50 ng/mL, or 500 ng/mL). At the end of the first stimulation (7 days), cells were collected, counted, phenotyped and re-stimulated with fresh peptide-pulsed aAPCs under the same conditions. Fold expansion was recorded at the end of the second stimulation.

TCR+c-MPL+ T cells [6] = assay: RNA-sequencing and GSEA of sequential killer T cells; assay type: cell-based, human; settings: after 3 BV173 challenges, rhTPO 50 ng/mL or EP 0.1 μg/mL
Source text: Total RNA was extracted from T cells of 3 independent donors, purified after sequential co-culture in no cytokine, rhTPO or EP (see above and FIG. 4A) using the RNeasy Mini Kit (Qiagen). T cell purification consisted of either dead cell removal alone (see above) or dead cell removal followed by FACS sorting (FACS Aria, BD, Flow Cytometry Core Laboratory at the Texas Children's Hospital Feigin Center), to achieve a >98% T cell purity and T cell viability of >90%. Total RNA samples were sent to GENEWIZ for library preparation and next generation sequencing, with 30 million reads per sample at a 1×50 base pair configuration.
RNA-Seq was performed in triplicates from 3 independent donors for all 3 conditions (control, rhTPO and EP; see main text). Fastq files were aligned to the transcriptome using HiSat2 with default parameters (Kim et al., 2015). Following alignment and quality control analysis, one replicate of the control dataset was removed due to poor signal to noise ratio. Transcripts were assembled and FPKM values were generated using cuffquant and cuffnorm from the cufflinks software suite (Trapnell et al., 2010) Active transcripts were defined as transcripts with a normalized FPKM value greater than 1 in at least one sample. […]

c-MPL+ T cells = assay: Expansion of polyclonal c-MPL+ T cells in TPO; assay type: cell-based, human; settings: cell number from 3×10^6 cells, TPO 50 ng/ml, mean±SD, n=4
Description: as §2, §3

[7] = tested on: c-MPL downstream signaling in c-MPL+ T cells; assay: Phosflow for pSTAT5, c-MPL downstream signaling; assay type: cell-based, human; settings: rhTPO 5 and 50 ng/ml; EP 0.1 μg/ml; 1 or 24 hours
Description: as §1

[8] = after three tumor cell challenges
[9] = baseline after T cell expansion

T cell expansion in TPO 50 ng/ml (cell number by day 7 from 3x10^6 cells) [1]	Molecule	MTOC to synapse distance, co-culture [2, 8]	perforin distance to the synapse (perforin convergence), co-culture [2, 8]	actin accumulation at the synapse, co-culture ([2]; after three tumor cell challenges, rhTPO 50 ng/mL or EP 0.1 μg/mL)	MTOC to synapse distance, baseline [2, 9]	actin accumulation at the synapse, baseline [2, 9]	perforin distance to the synapse (perforin convergence), baseline [2, 9]	T cell count in BV173 co-culture (BV173 leukemia cells [3])	T cell expansion in serial co-culture (BV173 leukemia cells [4]; E:T 1:5, versus no cytokines)	CD45RA+CD45RO+ and central memory cells among persistent T cells (BV173 leukemia cells [4]; serial co-culture)	Th1 cytokine production in sequential co-cultures (BV173 leukemia cells [4]; supernatants 24 hours after tumor cell challenge)	residual U266 cells (U266 myeloma cells; day 5, E:T 1:1, TCR+c-MPL+ T cells, noCK 43.3±1.1×10^5)	T cell count in U266 co-culture (U266 myeloma cells; day 5, E:T 1:1, noCK 1.84±0.31×10^5)	NT cells in TPO by day 7 (NT T cells)	antigen-specific expansion of TCR+ T cells (TCR+ T cells)	STAT3 and STAT5 phosphorylation in c-MPL+ cells (c-MPL+ cells)	antigen-specific expansion of TCR+c-MPL+ T cells (TCR+c-MPL+ T cells [5])	cell cycle associated genes in T cells from treated co-cultures versus controls (TCR+c-MPL+ T cells [6])	c-MPL+ cells in TPO by day 7 (c-MPL+ T cells)	STAT5 phosphorylation in c-MPL+ T cells [7]
7.44e+06 cells	recombinant human thrombopoietin (TPO) (from UniProt P40225 22-195) (ligand)	–	–	–	–	–	–	–	–	–	–	–	–	–	–	–	–	–	–	–
–	B1	1.46±1.58 μm	3.68±1.70 μm	52.60±16.32%	3.96±2.49 μm	35.23±16.41%	3.53±1.00 μm	31.5±19.1×10^4	significantly enhanced	enrichment	sustained	22.8±11.2×10^5	4.41±5.11×10^5	0.89±0.61×10^6	not	phosphorylated	expanded in a TPO-dose dependent manner	downregulated	7.44±0.99×10^6	occurred
